Assays:
5C.C7 TCR = test: Single-molecule FRET (smFRET) measurement of TCR–pMHC bond distance on lipid bilayer (TIRF); type: cell-based, mouse; conditions: 1 µM LA, 1 h pretreatment and continuous presence, smFRET 37 °C, K5, MCC, 102S, 339–1295 trajectories per histogram
Method: We next performed Cy3/Cy5 single-molecule FRET (smFRET) on a lipid bilayer to measure the conformations of single TCR–pMHC bonds using TIRF microscopy (Fig. 2 and Fig. S1b). TCR–pMHC bond formation at live T-cell membrane brought the donor Cy3 and the acceptor Cy5 into close enough proximity to produce smFRET (Figs. 1a and 2a). The fluorescent intensities of Cy3 and Cy5 were simultaneously recorded in real time (Fig. 2b, top panel, and Fig. S4a), and the EFRET values were calculated based on the fluorescence intensities of the donor Cy3 and the acceptor Cy5 (Fig. 2b, bottom panel). […] By plotting the EFRET histogram and fitting it with a Gaussian function, we determined the most probale EFRET value of 0.7, corresponding to a 47 ± 3 Å distance between the 5C.C7 TCR and the super agonist K5 pMHC in a representative smFRET trajectory (Fig. 2c). […] We further measured the average TCR–pMHC bond distances using ensemble FRET on both a lipid bilayer and a glass surface (Figs. S4b and S7), and the results confirmed the single-bond measurements obtained using smFRET (Fig. 2d).
For the FRET measurements between TCRs and pMHCs on the cell surface (FRET1), we generated a peptide-exchangeable CLIP-IE^k molecule.[41] […] The protein fractions were analyzed by SDS-PAGE. […]

[1] = system: TCR microclusters of 5C.C7 T cells; test: TCR microcluster formation at the T-cell synapse; type: cell-based, mouse; conditions: 1 µM LA
Excerpt: TCRs form microclusters upon antigen stimulation (Movie S4). To measure the conformational dynamics of single TCR–pMHC bonds without possible interference from TCR microclusters, we used latrunculin A (LA) to prevent the formation of TCR microclusters during smFRET measurements. […] We then performed smFRET in the absence of TCR microclusters.
To test whether TCR–CD3ζ conformational changes were dependent on TCR signaling, we used an Src kinase inhibitor PP2[27] to block TCR signaling. Consistent with the results of a previous study,[21] […] To reveal the role of TCR signaling in TCR–CD3ζ conformational changes, we plotted the time trajectories of the normalized intramolecular TCR–CD3ζ distances against the stimulation time in the absence and presence of PP2 (Fig. 4d). In the absence of PP2, the intracellular CD3ζ chain quickly separated from the TCR extracellular domain upon TCR engagement with the K5 pMHC and then reached a stable, fully extended TCR–CD3ζ conformation.
To measure the TCR–pMHC bond distance by smFRET in the absence of CD4 binding, T cells were incubated with 10 μg/mL anti-CD4 antibody (GK 1.5, Biolegend) and 0.027 µg/µL of Cy5-J1 scFV for 30 min at 4 °C. After three washes, the cells were added to a lipid bilayer containing Cy3-pMHCs, and smFRET assays were performed in the continuous presence of 10 μg/mL anti-CD4 antibody at 37 °C using TIRF microscopy. […]

[2] = target: 5C.C7 TCR (mouse (5C.C7 TCR transgenic mice)); test: FRET or BRET; ensemble Cy3/Cy5 FRET1 at the synapse; His-tagged Cy3-pMHC on a lipid bilayer (95 molecules/um^2) or a PEG-Ni2+ glass surface with ICAM-1 and B7-1; TCR on live primary 5C.C7 T cells labelled with scFv J1-Cy5; 37 °C
[3] = target: 5C.C7 TCR (mouse (5C.C7 TCR transgenic mice)); test: 2D micropipette adhesion frequency assay; biotinylated pMHC monomers on human RBCs by biotin–streptavidin; 5C.C7 T-cell blasts pre-incubated with 10 ug/mL anti-CD4 (GK 1.5); contact times 0.25-5 s, 50 cycles each; 25 °C (legend of Fig. 5); effective 2D constants from a probabilistic kinetic model
[4] = target: 5C.C7 TCR (mouse (5C.C7 TCR transgenic mice))

| Compound | average synaptic E FRET1 [2] | AcKa (effective 2D affinity) [3] | AcKon (effective 2D on-rate) [3] | koff [3] | separation between the TCR and CD3ζ after TCR–pMHC binding (transmembrane GFP/Alexa568 FRET2, lipid bilayer, 37 °C) [4] | also measured |
| --- | --- | --- | --- | --- | --- | --- |
| C/C1=C/C(=O)O[C@@H]2C[C@@H](CC[C@H](C)/C=C\C=C\CC1)O[C@@](O)([C@@H]1CSC(=O)N1)C2 [latrunculin A] | – | – | – | – | – | effect on TCR–pMHC bond distances (latrunculin A) (5C.C7 TCR): very close to those measured in the presence of TCR microclusters; effect on TCR–pMHC bond distances (latrunculin A) (5C.C7 TCR; listed as LA): no differences in the TCR–pMHC bond distances; effect of LA on TCR microcluster formation [1]: no TCR microclusters were observed |
| K5(C)-Cy3 peptide on His-tagged IE^k (from UniProt P04230 30-225) (peptide-MHC) | 0.79 | – | – | – | – | – |
| MCC(C)-Cy3 peptide on His-tagged IE^k (from UniProt P04230 30-225) (peptide-MHC) | 0.54 | – | – | – | – | – |
| T102S(C)-Cy3 peptide on His-tagged IE^k (from UniProt P04230 30-225) (peptide-MHC) | 0.29 | – | – | – | – | – |
| biotinylated monomeric IE^k covalently complexed with the 102S peptide (from UniProt P04230 30-225) (peptide-MHC) | – | 1.6e-05 µm^4 | 2.4e-06 µm^4 s^−1 | 1.5 s⁻¹ | 5 Å | – |
| biotinylated monomeric IE^k covalently complexed with the K5 peptide (from UniProt P04230 30-225) (peptide-MHC) | – | 0.00037 µm^4 | 3.6e-05 µm^4 s^−1 | 1 s⁻¹ | 15 Å | – |
| biotinylated monomeric IE^k covalently complexed with the MCC peptide (from UniProt P04230 30-225) (peptide-MHC) | – | 0.00015 µm^4 | 2e-05 µm^4 s^−1 | 1.3 s⁻¹ | 10 Å | – |

From paper PMC7052167, “TCR–pMHC bond conformation controls TCR ligand discrimination” (Cellular and Molecular Immunology, 2019)
